Reference: patent US20200255508A1 (AbbVie / Abbott, published 2020)
Changes are numbered by the printed parent chain.

B1: E9-SE2 (antibody, V domains shown)
VH: EVQLVESGGGLVQPGGSLRLSCAVSGGSISSSSYYWGWIRQAPGKGLEWIGDIYYTGSTYYNPSLKSRVTISVDTSKNSFYLQMNSLRAEDTAVYYCAREDVILRGGSDYWGQGTLVTVSS
VL: SYELTQPPSVSVSPGQTASITCSGQRLGDKYASWYQQKPGQSPVLVIYEDSKRPSGIPERFSGSNSGDTATLTISGTQPMDEADYYCQAWDRDTGVFGYGTRVTVLG
notes: full-length human IgG1
B2: E9-SE3 (antibody, V domains shown)
VH: EVQLQESGPGLVKPGETLSLTCTVSGGSISSSSYYWGWIRQAPGKGLEWIGDIYYTGSTYYNPSLKSRVTISVDTSKNQFYLKLSSVRAEDTAVYYCAREDVILRGGSDYWGQGTLVTVSS
VL: B1 VL
notes: full-length human IgG1
B3: E9-SE5 (antibody, V domains shown)
VH: B2 VH with G15S, A42P, Y81S, R88T, E90A
VL: EYVLTQSPDFQSVTPKEKVTITCSGQRLGDKYASWYQQKPDQSPKLVIYEDSKRPSGVPSRFSGSNSGDDATLTINSLEAEDAATYYCQAWDRDTGVFGQGTKVEIKR
notes: full-length human IgG1
B4: E9-SE8 (antibody, V domains shown)
VH: B2 VH
VL: B3 VL
notes: full-length human IgG1
B5: E9-SE4 (antibody, V domains shown)
VH: B2 VH with G15S, A42P, Y81S, R88T, E90A
VL: B1 VL with S1L, E3V, P79T, Y86L, Y99G, R102K
notes: full-length human IgG1
B6: E9-SE6 (antibody, V domains shown)
VH: B2 VH
VL: B1 VL with S1L, E3V, P79T, Y86L, Y99G, R102K
notes: full-length human IgG1
B7: E9.17 (antibody, V domains shown)
VH: B2 VH with G15S, A42P, Y81S, R88T, E90A, D101E, V102A, R105G
VL: SYELTQPPSVSVSPGQTASITCSGQRLGDKYASWYQQKPGQSPVLVIYEDSKRPSGIPERFSGSNSGDTATLTISGTQPMDEADYYCQAWDRDTGVFGYGTKVTVL
notes: also called DLL4-E9-17 hIgG1/L
B8: E9.10H (antibody, V domains shown)
VH: EVQLQESGPGLVKPSETLSLTCTVSGGSISSSGYYWGWIRQPPGKGLEWIGDIYYTGNTYYNPSLKNRVTISVDTSKNQFSLKLSSVTAADTAVYYCAREEVILGGGADQWGQGTLVTVSS
VL: SYELTQPPSVSVSPGQTASITCSGESLGDKYVSWYQQKPGQSPVLVIYEDSKRPSGIPERFSGSNSGDTATLTISGTQAMDEADYYCQAWDGETGVFGSGTKVT
B9: E9.10C (antibody, V domains shown)
VH: B8 VH with S32G, G33S, N58S, N67S, E100Q, E101A, I103M, L104Y, A108S, Q110N
VL: B8 VL with E25D, K52E, G92S
B10: E9.10E (antibody, V domains shown)
VH: EVQLQESGPGLVKPSETLSLTCTVSGGSINSGNYYWGWIRQPPGKGLEWIGDISYTGSTYYNPSLKSRVTISVDTSKNQFSLKLSSVTAADTAVYYCAREDVMYGGGGDSWGQGTLVTVSS
VL: B8 VL with S26G, K52E, G92S, T94A
B11: E9.7E (antibody, V domains shown)
VH: B8 VH with G33S, T56A, N58S, N67D, E101D, V102M, Q110N
VL: B8 VL with E25D, S26R, K52E, G92S, T94A
B12: E9.71(L) (antibody, human IgG1, V domains shown)
VH: B8 VH with G33S, N58S, N67S, E100Q, E101A, V102L, I103A, A108S, Q110K
VL: B1 VL with Y99G, R102K, V103L
notes: Methionine in CDR-H3 of E9-71 changed to leucine
B13: E9.71(M)-3 (antibody, human IgG1, V domains shown)
VH: B8 VH with G33S, N58S, N67S, E100Q, E101A, V102L, I103A, L104M, A108S, Q110K
VL: YELTQPPSVSVSPGQTASITCSGQRLGDKYASWYQQKPGQSPVLVIYEDSKRPSGIPERFSGSNSGDTATLTISGTQPMDEADYYCQAWDRDTGVFGGGTKLTVLG

Target: T1, human DLL4 extracellular domain (human, UniProt Q9NR61 27-529)
T1 construct: extracellular domain; coated on plates in the sVEGFR1 assay; also called huDLL4 ECD; Human DLL4 ECD
Test: Biacore SPR;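 for koff: surface plasmon resonance on a Biacore instrument, antibodies captured on immobilized anti-human Fc, purified recombinant DLL4 extracellular domain injected as analyte, binding followed over time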
Protocol: (§1) The BIACORE® surface plasmon resonance assay (Biacore, Inc., Piscataway, N.J., US) determines the affinity of antibodies with kinetic measurements of on-rate and off-rate constants. Binding of DLL4 antibodies to a purified recombinant DLL4 extracellular domain is determined by surface plasmon resonance-based measurements with a Biacore® instrument (either a Biacore 2000, Biacore 3000, or Biacore T100, GE Healthcare, Piscataway, N.J. US) using running buffer HBS-EPB (10 mM HEPES [pH 7.4], 150 mM NaCl, 3 mM EDTA, 0.1 mg/ml BSA and 0.005% surfactant P20) at 25° C. For example, approximately 9000 RU of goat anti-human Fc specific polyclonal antibody (Thermo Fisher Scientific Inc., Rockford, Ill., US) diluted in 10 mM sodium acetate (pH 4.5) is directly immobilized across a CM5 research grade biosensor chip using a standard amine coupling kit according to manufacturer's instructions and procedures at 25 μg/ml. Unreacted moieties on the biosensor surface are blocked with ethanolamine. For kinetic analysis, rate equations derived from the 1:1 Langmuir binding model are fitted simultaneously to multiple antigen injections (using global fit analysis) with the use of Scrubber 2 (BioLogic Software). […] The equilibrium dissociation constant KD (M) of the reaction between antibodies and the target antigen is then calculated from the kinetic rate constants by the following formula: KD=Koff/Kₒₙ. Binding is recorded as a function of time and kinetic rate constants are calculated. In this assay, on-rates as fast as 10⁶ M⁻¹s⁻¹ and off-rates as slow as 10⁻⁶ s⁻¹ can be measured.

Row | Binder | Kd
1 | B1 | 2.43 nM
2 | B2 | 2.26 nM
3 | B3 | 1.57 nM
4 | B4 | 2 nM
5 | B5 | 2.38 nM
6 | B6 | 0.64 nM

Target: T2, mouse DLL4 extracellular domain (mouse, UniProt Q9JI71 27-532)
T2 construct: extracellular domain; also called muDLL4 ECD; Mouse DLL4 ECD
Test: Biacore SPR;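 for koff: surface plasmon resonance on a Biacore instrument, antibodies captured on immobilized anti-human Fc, purified recombinant DLL4 extracellular domain injected as analyte, binding followed over time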
Protocol: as §1

T2 sequence (Q9JI71 27-532): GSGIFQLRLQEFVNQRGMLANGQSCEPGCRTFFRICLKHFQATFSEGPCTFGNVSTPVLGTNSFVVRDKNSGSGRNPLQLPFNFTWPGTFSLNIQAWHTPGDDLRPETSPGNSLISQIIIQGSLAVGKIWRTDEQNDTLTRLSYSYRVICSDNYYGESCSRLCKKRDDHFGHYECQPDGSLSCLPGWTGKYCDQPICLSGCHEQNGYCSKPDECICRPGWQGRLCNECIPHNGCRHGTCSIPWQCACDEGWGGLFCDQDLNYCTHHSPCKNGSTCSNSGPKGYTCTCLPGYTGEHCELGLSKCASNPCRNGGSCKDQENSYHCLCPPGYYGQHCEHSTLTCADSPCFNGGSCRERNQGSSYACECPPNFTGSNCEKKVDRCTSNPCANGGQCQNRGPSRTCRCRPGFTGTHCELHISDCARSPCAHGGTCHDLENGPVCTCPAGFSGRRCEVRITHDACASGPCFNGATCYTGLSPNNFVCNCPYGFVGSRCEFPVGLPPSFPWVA

Row | Binder | Kd
7 | B1 | 15.1 nM
8 | B2 | 12.1 nM
9 | B3 | 12.8 nM
10 | B4 | 13 nM
11 | B5 | 10.5 nM
12 | B6 | 10 nM

Target: T1, human DLL4 extracellular domain
Test: Biacore SPR;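 for koff: surface plasmon resonance on a Biacore instrument, antibodies captured on immobilized anti-human Fc, purified recombinant DLL4 extracellular domain injected as analyte, binding followed over time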
Remark: another data set of the same source
Protocol: (§2) Binding of DLL4 antibodies to a purified recombinant DLL4 extracellular domain is determined by surface plasmon resonance-based measurements with a Biacore® instrument (either a Biacore 2000, Biacore 3000, or Biacore T100, GE Healthcare, Piscataway, N.J. US) using running buffer HBS-EPB (10 mM HEPES [pH 7.4], 150 mM NaCl, 3 mM EDTA, 0.1 mg/ml BSA and 0.005% surfactant P20) at 25° C. For example, approximately 9000 RU of goat anti-human Fc specific polyclonal antibody (Thermo Fisher Scientific Inc., Rockford, Ill., US) diluted in 10 mM sodium acetate (pH 4.5) is directly immobilized across a CM5 research grade biosensor chip using a standard amine coupling kit according to manufacturer's instructions and procedures at 25 μg/ml. Unreacted moieties on the biosensor surface are blocked with ethanolamine. For kinetic analysis, rate equations derived from the 1:1 Langmuir binding model are fitted simultaneously to multiple antigen injections (using global fit analysis) with the use of Scrubber 2 (BioLogic Software). […] The equilibrium dissociation constant KD (M) of the reaction between antibodies and the target antigen is then calculated from the kinetic rate constants by the following formula: KD=Koff/Kₒₙ. Binding is recorded as a function of time and kinetic rate constants are calculated. In this assay, on-rates as fast as 10⁶ M⁻¹s⁻¹ and off-rates as slow as 10⁻⁶ s⁻¹ can be measured.

Row | Binder | Kd | koff | kon
13 | B7 | 0.1 nM | 4.4e-06 s⁻¹ | 43900 M⁻¹ s⁻¹
14 | B8 | 0.57 nM | 5.9e-05 s⁻¹ | 104000 M⁻¹ s⁻¹
15 | B9 | 0.38 nM | 4.59e-05 s⁻¹ | 120000 M⁻¹ s⁻¹
16 | B10 | 0.21 nM | 4.62e-05 s⁻¹ | 218000 M⁻¹ s⁻¹
17 | B11 | 0.27 nM | 4.12e-05 s⁻¹ | 152000 M⁻¹ s⁻¹

Target: T2, mouse DLL4 extracellular domain
Test: Biacore SPR;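 for koff: surface plasmon resonance on a Biacore instrument, antibodies captured on immobilized anti-human Fc, purified recombinant DLL4 extracellular domain injected as analyte, binding followed over time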
Remark: another data set of the same source
Protocol: as §2

Row | Binder | Kd | koff | kon
18 | B7 | 0.38 nM | 1.41e-05 s⁻¹ | 37000 M⁻¹ s⁻¹
19 | B8 | 0.34 nM | 2.23e-05 s⁻¹ | 65300 M⁻¹ s⁻¹
20 | B9 | 1.6 nM | 0.000121 s⁻¹ | 73700 M⁻¹ s⁻¹
21 | B10 | 0.62 nM | 9.41e-05 s⁻¹ | 151000 M⁻¹ s⁻¹
22 | B11 | 2.3 nM | 0.000221 s⁻¹ | 95300 M⁻¹ s⁻¹

Target: T3, human DLL4-his (human, UniProt Q9NR61 27-529)
T3 construct: extracellular domain
Test: ELISA on DLL4-his
Protocol: After the final wash, plates were incubated with 100 μl/well ELISA substrate (Sigma # T8665). The reaction was stopped after 8 minutes at 25° C. with 100 μl/well 1N HCl and the absorbance was read at 450 nm. Data were analyzed using Graphpad Prism software and EC50 values were reported.

Row | Binder | EC50
23 | B1 | 0.18 nM
24 | B2 | 0.18 nM
25 | B3 | 0.16 nM
26 | B4 | 0.18 nM
27 | B5 | 0.17 nM
28 | B6 | 0.17 nM

Target: T4, mouse DLL4-his (mouse, UniProt Q9JI71 27-532)
T4 construct: extracellular domain; not shown: his tag
Test: ELISA on DLL4-his

T4 sequence (Q9JI71 27-532): as above

Row | Binder | EC50
29 | B1 | 0.2 nM
30 | B2 | 0.2 nM
31 | B3 | 0.19 nM
32 | B4 | 0.19 nM
33 | B5 | 0.2 nM
34 | B6 | 0.19 nM

Target: T5, human DLL4 on the cell surface (human, UniProt Q9NR61 27-685)
T5 construct: whole, on cells; also called HEK293-hDLL4; hDLL4-293G
Test: FACS on DLL4 cells
Protocol: (§3) Stable cell lines overexpressing cell-surface DLL4 were harvested from tissue culture flasks, washed four times and resuspended in phosphate buffered saline (PBS) containing 1% bovine serum albumin and 1 mM CaCl₂ (FACS buffer), 1.5×10³ cells were incubated with antibodies at various concentrations in FACS buffer for 60 minutes on ice. Cells were washed twice and 50 μL of R-phycoerythrin-conjugated anti-rat IgG. […] Following an incubation on ice (4° C., 60 minutes), cells were washed three times and resuspended in FACS buffer. Fluorescence was measured using a Becton Dickinson FACSCalibur-HTS (Becton Dickinson, San Jose. Calif., US). Data were analyzed using Graphpad Prism software and EC₅₀ values were reported as the concentration of antibody to achieve 50% of maximal DLL4 antibodies binding to DLL4 expressing cells.

Row | Binder | Kd
35 | B1 | 5.2 nM
36 | B2 | 2.29 nM
37 | B3 | 7.81 nM
38 | B4 | 2.67 nM
39 | B6 | 4.25 nM

Target: T6, mouse DLL4 on the cell surface (mouse, UniProt Q9JI71 27-686)
T6 construct: whole, on cells; also called HEK293-mDLL4; mDLL4-293G
Test: FACS on DLL4 cells
Protocol: as §3

T6 sequence (Q9JI71 27-686): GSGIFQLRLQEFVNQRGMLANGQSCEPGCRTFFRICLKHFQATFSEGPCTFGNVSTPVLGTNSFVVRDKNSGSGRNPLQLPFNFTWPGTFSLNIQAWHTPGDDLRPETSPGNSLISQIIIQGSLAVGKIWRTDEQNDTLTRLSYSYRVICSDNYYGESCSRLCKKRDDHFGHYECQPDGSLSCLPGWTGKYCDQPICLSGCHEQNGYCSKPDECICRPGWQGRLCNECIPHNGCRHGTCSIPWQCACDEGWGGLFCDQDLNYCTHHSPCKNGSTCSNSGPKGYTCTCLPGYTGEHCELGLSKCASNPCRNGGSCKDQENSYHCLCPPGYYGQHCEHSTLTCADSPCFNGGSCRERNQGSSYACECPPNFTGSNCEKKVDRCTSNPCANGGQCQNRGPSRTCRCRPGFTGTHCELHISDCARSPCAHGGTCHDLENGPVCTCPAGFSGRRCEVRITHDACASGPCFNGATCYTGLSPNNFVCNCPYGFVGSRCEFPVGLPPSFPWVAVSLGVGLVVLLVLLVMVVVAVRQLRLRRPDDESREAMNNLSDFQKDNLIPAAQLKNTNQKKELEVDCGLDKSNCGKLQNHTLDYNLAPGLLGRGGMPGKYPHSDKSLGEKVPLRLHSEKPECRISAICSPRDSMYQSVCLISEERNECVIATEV

Row | Binder | Kd
40 | B1 | 0.87 nM
41 | B2 | 0.74 nM
42 | B3 | 2.9 nM
43 | B4 | 2.32 nM
44 | B5 | 1.15 nM
45 | B6 | 1.18 nM

Target: T5, human DLL4 on the cell surface
Test: FACS on DLL4 cells
Remark: another data set of the same source

Row | Binder | EC50
46 | B7 | 8 nM
47 | B8 | 3.52 nM
48 | B9 | 3.15 nM
49 | B12 | 0.22 nM
50 | B10 | 5.1 nM
51 | B11 | 4.46 nM

Target: T6, mouse DLL4 on the cell surface
Test: FACS on DLL4 cells
Remark: another data set of the same source

Row | Binder | EC50
52 | B7 | 2.57 nM
53 | B8 | 0.82 nM
54 | B9 | 0.88 nM
55 | B12 | 0.47 nM
56 | B10 | 1.19 nM
57 | B11 | 1.94 nM

Target: T5, human DLL4 on the cell surface
Test: cell-based or functional assay

Row | Binder | Inhibition of Notch activation via huDLL4 cells, coculture (IC50, nM)
58 | B7 | 1 nM
59 | B13 | 0.65 nM
60 | B9 | 0.85 nM
61 | B12 | 2.4 nM
62 | B11 | 0.41 nM

Target: T5, human DLL4 on the cell surface
Test: competition FACS, competitor huNotch-1
Protocol: (§4) Notch blocking assay: Briefly, stable cell lines overexpressing cell-surface DLL4 were harvested from tissue culture flasks and re-suspended in phosphate buffered saline (PBS) containing 1% bovine serum albumin and 1 mM CaCl₂ (FACS buffer). HEK293-hDLL4 or HEK293-mDLL4 cells were dispensed into 96-well plate (v-bottom) at 1.5×10⁵ cells/well in FACS buffer. […] After washing the cells two times with FACS buffer, 50 μL of R-phycoerythrin-conjugated streptavidin (1:150 dilution in FACS buffer) (Jackson ImmunoResearch, West Grove, Pa., US, catalog no. 016-110-084) were added. Following an incubation on ice (4° C., 60 minutes), cells were washed three times and resuspended in FACS buffer. Fluorescence was measured using a Becton Dickinson FACSCalibur-HTS (Becton Dickinson, San Jose. Calif.).

Row | Binder | IC50
63 | B1 | 5.61 nM
64 | B2 | 6.75 nM
65 | B3 | 6.38 nM
66 | B4 | 9.25 nM
67 | B5 | 5.82 nM
68 | B6 | 8.16 nM

Target: T6, mouse DLL4 on the cell surface
Test: competition FACS, competitor huNotch-1
Protocol: as §4

Row | Binder | IC50
69 | B1 | 1.23 nM
70 | B2 | 1.25 nM
71 | B3 | 1.76 nM
72 | B4 | 2.3 nM
73 | B5 | 1.71 nM
74 | B6 | 1.53 nM

Target: T5, human DLL4 on the cell surface
Test: competition FACS, competitor huNotch-1
Remark: another data set of the same source

Row | Binder | IC50
75 | B7 | 19.8 nM
76 | B8 | 5.65 nM
77 | B9 | 3.03 nM
78 | B12 | 1.82 nM
79 | B10 | 3.83 nM
80 | B11 | 4 nM

Target: T6, mouse DLL4 on the cell surface
Test: competition FACS, competitor huNotch-1
Remark: another data set of the same source

Row | Binder | IC50
81 | B8 | 0.6 nM
82 | B9 | 0.26 nM
83 | B12 | 0.21 nM
84 | B10 | 0.36 nM
85 | B11 | 0.33 nM

Target: T1, human DLL4 extracellular domain
Test: competition ELISA, competitor huNotch-1
Protocol: (§5) Plates were then washed 3 times with wash buffer (PBS, 0.05% Tween-20) and blocked with 200 μl/well blocking buffer (D-PBS, 1% BSA, 1 mM CaCl₂, 0.05% Tween-20) for 1 hour at 25° C. […] Assay plates were washed after blocking, and incubated with DLL4/antibody mixtures (100 μl/well, 1 hour at 25° C. with shaking). […] After a final wash, plates were developed using 100 μl/well substrate (TMB Sigma # T8665), and the reaction was stopped after an 8-minute incubation at 25° C. (for muDLL4 ELISA) and after 20 minute incubation at 25° C. (for huDLL4 ELISA) using 100 μl/well 1N HCl, and the absorbance was read at 450 nm.

Row | Binder | IC50
86 | B1 | 2.6 nM
87 | B2 | 2.5 nM
88 | B3 | 2.6 nM
89 | B4 | 2.5 nM
90 | B5 | 2.7 nM
91 | B6 | 2.5 nM

Target: T2, mouse DLL4 extracellular domain
Test: competition ELISA, competitor huNotch-1
Protocol: as §5

Row | Binder | IC50
92 | B1 | 2.2 nM
93 | B2 | 2.1 nM
94 | B3 | 2.4 nM
95 | B4 | 2.6 nM
96 | B5 | 2.9 nM
97 | B6 | 2.9 nM
